Measurements: patent US20030211537A1

Legend:
[1] = target: H278N mutant mouse delta opioid receptor (mouse) (UniProt P32300); assay: competition vs 3H-naltrindole, COS-7 membranes
[2] = target: rat µ opioid receptor (rat) (UniProt P33535); assay: competition vs [3H]DAMGO, COS-7 membranes
[3] = target: mouse kappa opioid receptor (mORK1) (mouse) (UniProt P33534); assay: competition vs [3H]U-69,593, COS-1 membranes

For D-Ala2-deltorphin II (peptide), the Ki [1] was 4 nM.

PLO17 (peptide) gave a Ki [2] of 30 nM.

“[D-Ala2, F5Phe4]Dynorphin (1-13)NH2 (from UniProt P01213 207-219) (peptide)” gave an IC50 [3] of 19 nM.

“[D-Ala2, F5Phe4]Dynorphin (1-17)NH2 (from UniProt P01213 207-223) (peptide)” was tested, and the IC50 [3] was 0.2 nM.

dermorphin (peptide) gave a Ki [2] of 0.33 nM.

In the case of morphiceptin (peptide), the Ki [2] is reported as 56 nM.
